assay: soluble on expression in E. coli; label from the status in PepcDB or PDB records

| Sequence | soluble on expression in E. coli |
| --- | --- |
| MGSDKIHHHHHHMYNKFKLMAKIYLGPAGVPHSAKKKNTVEGIRTVKELGLNAMEVEFVQGVRMSKETAEETGQVARELGVRLSVHAPYFINLCSEEKEKIEASKQRILDTADRAELMGADAIAIHIAFYGKMTPEECYQNVKEGLEEVIDKAREMGIRNVKFGVETMAKETAFGTLDEVISISKELKGVIPYIDWAHTFARQGGEIDYGKIIDRLIKELGLTHINSHFESLVYRRGKYVDEHIPIDANAPPFEPLAKELLKRDISITLICESPELERDALKMKEVLERLGYRLE | not soluble |
| MLYQPSLLKSRLTPAPPGFSFQPQPLLNSDMDPVRNLESLGNYTVYQDSSQCFWQHQNFTSNREHNPALRKTKICDHWRRSGSCSYGDACWYAHGEDDLRKVVRIDRSNEEENERPATAEIQKSPTKRASTNVKGLTVNIPSNTAFKEQNSSMPLSPAQERWISMSIGAVPPPTSSAAEKDAISSLSKNGVEQEQEKKHEICSRDDDIDDYGFLSPNPFPYPQQSMFSAGFPSHGHHQRSSNRATQGVPSQQFGGPVNIPGQDPNRLGSGAYHIPPQHQRSRSNVRTSREVGGPPPQFQQAIWNVAGEIYQRQKDIEIGGQRVGPNDRQPTQQKNSEMDRLLSKLKMKDLNYLRFMIERGYINERDVSRQTSSDQMSNGHHFNAPMTPPYHPRLAGNEPNTSDCHYHGTGNRLSNFMPGRHRPPHQHPIHHHHQSQHQLHQHQQYLHHAAQQYRYSHQQGPQHPFAALLSPPEISESLLPPDDSFSIWLEPKPKKQSGAMTRTRGAATINESSSAASLLTKMDALRSDKYPITDEEMMMANDFVRQGDRDDKLSSSESSSPVVMSLMELLSNENLLDQVATEKPKCSMFDFDTLKIAETLKEPLQSSECSTTTSSKMTCSPMFFFVDEKTPNYDGSGSKSLFTPSSSAGQTPSFLEPCDFFAATGSCPFGDACHQSHSI | not soluble |
| MGSDKIHHHHHHMLITFNFEVHQPHRLNKEINQNGNTLWEKYVDTKLNKEVFNKVANKCYIPTNELILELIDEYDFKVNYSITGVFVEQALEFNDYVLDLFKDLVKTGNVELIAETYHHSLTSLFETEDEFIEDIEMHRKMYKEIFGFKAKVFRNTELIYNNRIAKIAKDLGFKAIFTEGIEKILGWRSPNYLYQSPDGMKILLRNYRLSDDIGFRFSARDWDQYPLTADKYAIWLASTPGEVINIYMDYETFGEHHWKETGIFEFLRYLPIEIAKHEHLEVVNVSEVVDRLEPRGEIYVHEFATISWADTERDVSAWLGNKMQRISFEKLKDIGKFIKENSNKLKKLNKFDEIYKMYKVLQTSDNLYYQSIKGLSDMSVHNYFSHFDTPFDAYASYLNILYDFEYYIKELLAKSEFDKNNRRKDGQKQYEKDDEVKKESLINTNIIVAKDDKTESIYIEDEEGKKNKRYERDEGFIIA | not soluble |
| MSLKEISVVLVGIGGYGNKYVEYILREGREKGVRISGVVDPYPQNSRFYDELRSLNVPMYNTLEEFYSHHTADLAIISSPIHYHCEQTCTAVRNGSHVLCEKPAAATVKEVKKMIECREKYGKIVAIGYQWSYNPAVLKLKEDILAGKFGKPVLFKTLVLWPRDTAYYRRNSWAGKLKVNNRWVLDSVAGNATAHFLHNMLFLLGEKMEESAYPESMVAELYRANDIESFDTCALKMTVRKIPVLFFATHAVKERKGPVFEYRFEKARVICNYPEYPESEENLLVVYEDGRKEIYGPTDHGSMRKLWVVVDAARGRKEFICTLESAMAHTIAINGAHVSMKEIQDFPTELKRVEGEPPMIWVEGLKEAMERAYEEEKIFSELNLPWAKRGEEVKLENFEGLEGEITEGHHHHHH | soluble |
| MKVLLINGSPHAKGCTYTALSEVAKALEEENIETEIFQIGTKPVRGCIGCGTCSKTGSGKCVFDDDTLNAGLEKAKTADGFIFGSPVHYAAASGALTSFLDRFFYAGKDFAYKPGAAIVSCRRGGAAAAFDQLNKYFTIANMPIVSSQYWNMVHGNTPEEVKQDLEGMQTMRTLGKNMAWLLKSIQAGKEAGVKLPEKEQTIRTNFIRLEHHHHHH | soluble |
| MELDDFDPEDKEILSWDINDVKLPQNVKTTDWFQEWPDSYVKHIYSSDDRNAQRHLSSWAMRNTNNHNSRILKKSCLGVVVCSRDCSTEEGRKIYLRPAICDKARQKQQRKSCPNCNGPLKLIPCRGHGGFPVTNFWRHDGRFIFFQSKGEHDHPRPETKLEAEARRAMKKVHM | soluble |
| MSMPETKTRSVALTPPLHTPRLLLLPLQLEDAPAMQSLFNHWEVVRYLTHHVPWPYPEGEALRYLREDALPAMQDGEEWHWSIRLRSQQDRLIGSACMMDEQDNNRGFWLSPAYQGLGLMSEVCVAIDRFWFETLKRPVLRVAKCALNEASCRLSQREGMRLVTVQESQFVCGTTQEQLWELTRDEWRANNGG | not soluble |
| MDYVDYSNPDNPVITDEGERLAKIHSEADLLVAQCLKRGIWDNLDPAELAGVVSMCTFENRRETGGEAQAVTEAMADSMNSVERIWGELVEDERRHRLPITRQPEAGFATAIHQWASGAPLGYCMAAAAENGAELTPGDFVRWCRQVIDLLEQVAKTAYFDETTRNARQAIDAIRRGVVAIGSLEHHHHHH | soluble |
| MTRCPERPGFMPRLSSHHFSRSRLSAPLLASGARVKLLCAPAGSGKTALLAECLQQAPETCRVSWLPLSGGRHSPQGLCAALAQALGLERDDEATVLQHLAHLQAPAWIFIDDYCRVAAADLDLLLDRLLSLDNPQLTWWLGCRRRPLCNWPRLLLDDQLFELDGPALAFSQIEIEQLLQRLPQPLCAQTASRILQRSGGWCAGVRIALLEGSELTIQPCKPGRPNTLLEYLEHELFSVLPAELAQVWQVLAHLPRFNAELCEHLFGVGEGAQYLRTLQDMACFIEPWDGGGDWLQVFPPLARLMRDE | not soluble |
| MMKNDEQDDVDVVNVPTNIDFQCNLCEYVGKSDRSLSAHKRHRHPRPEGQEDDKKPRGRPKKYEDSPVPLQRVTTKQLLGGRKRPKTIVECVDDSAIRTDKEASRLHGLGIIDEETSLGDYVRRGANYQLMGGSDMNLDGNSMIVGQEVVIDHEEDEENDDSPMLDSIPAGKNLERRKIRKSGRACASIRLSAKNRQISRSSHMRKVHPNEHAERKRNAPGYNSNGTYNCHFPLCQWRGWSRSTRSTHLRKAHPEWRPDDNRVMTVLSCFYCKSSFHTYAQLADHTITHGGLALMISQSFDNKHHFSAWLQQMERVYSVTFERSEFGSDPELQDLHNYVLHCDCVGGRGEQLATDSRAYIDQKHTNFKFSGAYIYQKHNFLKRRHPQLLTRNKNDCCVHLEVREDSEYGPIHVKGTLEHTGHRFGTPLLRMLFEGFTMDHYTTPRSVILMEPLHTNQFQSLREFIEAPSTSTYQNPYFSVDFGDSPEQFSFGYMSDEMQKLWSKYAPGRTITIDSSPLEFGEVDLFQYSVIVTDENYIPKCAMIYVTTDNSRAPHTILRQMKAVEPRPPTIFMVDPSQLWVELIQDLWPTDLDNPESEVTILISEWTLMDYWAAKTEELVKNEFDVFCIVTALRRMLRVEDAHQLYYTIVELFEAFFECGYDGLAEFFDAQLSDMEYFKRWGPLHRTTLTSHAHPTLGASFRILRDWYLNPANMDHDAPRVDQWFSHICQRIEDFNAITNTQTYTLRPLDPPHKFFYTTVEDEEGEEAEHENPFKNPQILMYDDDGDEVVVEEEIIGHEIDGASELQGSELPDEEVIYETYEDYPEYGGHYDLEEEHKMHHNMRLEEEELQQHLHEQQKPEHLSHQTEELGELQDHHHHHHHHLDEDPEATAEGPSEIVEHDDEEEQEDLVDVEMVDDQHEQHEIPAKIPPHRQRLYQKLDPMPVISHELPRSPSRRIRIPTRKIQELDQESVLPPPPRRETTRSVVRSRKRRDRFAELRDCPPEVMRAIAAHAIAYDGRKKEQRPIVYVPRQAKMAMSSTPTAPTPPEDYDGPPGHQMTTILQHQRQAKQEEEEEQWSGEYDDELHEQEHDPATSSPPPSLLPHTGPSEIVHHEEEVHMMLPEEEADLMDDDDQQPCTSASMYR | soluble |
| MSLINARLIAFEDQWVPALNAPLKQAILADSQDAQLAAAMTYSVLAGGKRLRPLLTVATMQSLGVTFVPERHWRPVMALELLHTYSLIHDDLPAMDNDALRRGEPTNHVKFGAGMATLAGDGLLTLAFQWLTATDLPATMQAALVQALATAAGPSGMVAGQAKDIQSEHVNLPLSQLRVLHKEKTGALLHYAVQAGLILGQAPEAQWPAYLQFADAFGLAFQIYDDILDVVSSPAEMGKATQKDADEAKNTYPGKLGLIGANQALIDTIHSGQAALQGLPTSTQRDDLAAFFSYFDTERVNEGHHHHHH | soluble |
| MKKESQVIFDKNVIEFVTVAAEFCAFLERAESMKRSTFVDTTLKILPLLYLKASMLPKCEMIGDESPETYVTEEIYEVLRINLASILAEKDDYLEVFLPDMAYSDEPIKKNISEDLADIYQDIKDFIFVFQLGLNETMNDSLAICQENFGLLWGQKLVNTMRALHDVKYSPKARLEHHHHHH | soluble |
| MSLSVEAMIGQLNAEIKRLDRLIRSHLNQHPELKKDFDLLTSIKSVGYQLGLNMLVILRSHDFATAEQAAAFLGVVPVEKYSGTSVRGCPKLSKIGPPEIRAKLYLASLCGLRFNPLMKAMYERLCLRGKGKMCAIGALMRKLVHWCYGVLKTQKPFDVGYLSSYARSACKAAEGHHHHHH | soluble |
| MFIQTEATPNPATLKFLPGKVVLESGTVEFLNASQAQASPLAERLFTIPGVTGVYFGFDFITVTKDDAEWQHLKPAILGSIMEHFMSGRPIMGTAIAAEVSDEEGEFFEEGDETIVATIKELLDTRVRPAVAQDGGDITFRGFRDGTVFLNMKGACSGCPSSTATLKHGVQNLLRHFVPEVREVEAV | not soluble |
| MGSDKIHHHHHHMKYRTVFDIIGPVMIGPSSSHTAGAARIGRVARTLFGQQPERCDIYFYGSFAETYKGHGTDVAIVGGILDFDTFDPRIPRSLQLAKEKGVRVYFHEEEAITDHPNTAKVVLQKGEDQLEVVGVSIGGGKIEIVELNGFHLKLSGNHPAILVVHTDRFGVIASVSNMLAKHEINIGHMEVSRKEKGKEALMVIEVDQNVDDLLLQELERLPNIVTVTKIHD | not soluble |
| MEIANKRAWREYISYEIIRLQMHQILTLFLLALAASPSQAVTDRSCGSDLSRLWLDIVFVVDNSKNMNLYNVYNTISNLFNPFVQIGTGYDDPRSTRVGFITYNWNATDVADFYKLQSYSDLSSQIQALSVTPLSRADETYIDTGLQAAINMINATGGLRDNYKKVVVLFTSKYNYYHTYPEDLTDYLKSTGVTIITVNTGGDSYTTQSLRDKIASKGMAFAMSDGNTTAELQKAVLAINCFCRPGWMQYHYPLKSDNIYSNYGVCLYRPDSAMTKFAAQSYCHSLTTNGYLVSELDQQKRAFNWDYLNSKGITINAFYNGLTNYNGTWWWDQPSGQPLWPLNPNSGAPPQRSGCVVDMKYSDGSISWTPISCTSFFRFLCESVACDTDNYCEF | not soluble |
| MERMRSIWKGSIAFGLVNVPVKVYSATEDHDIRFHQVHAKDGGRIKYNRVCSECGNVVQYADIDKAYDSDDGVRVVLTDDDFGKLPAAEKHEIPVLQFVPTEQIDPILFEKSYFLEPDSSSPKAYVLLATALENSDRTALVHFTLRQRTRLAAMRSRDGVLVIQTLLWPDEVRVAEFSSLDGVDK | not soluble |
| QSWYGGFKDTAELVRGDSNECIELTDDQLSYLAVLWAARCAVGFQEMKLTRLAKETRLSHEVVQKITQIFISQGIVSVFEEYGPSGQKDVAWVQLTEHGCGLAKNLERVSSHS | not soluble |
| MGSDKIHHHHHHMTTLGIDHPLVCVRDLAAKRATYQSLGFLMKPPGMHPWGTSTALVIFRNQLLELVSIEDESLLDGYAAGSFRFGRHVEAWLAEREGVCLSALNSMDAEADEAAVLARGGSCAGTVEFGRDVVRDDGTPDRTKTTLKIFPHAGLPRLSMFACQQHRRDLIEFPDWMDHPNGAHGFASATILAAPSDQGRVRDWLSVLHGADAVRDTDWGFEVATTNGRWRVVSRATAPALLGKLPDGLASDGAPSVISLDIRCHALSQLRPFVEAGEFVCQDVNGALVLTEVARLGGILLSFHEIPKV | not soluble |
